B1: NEK8 (parent)
chain: VVGTPCYISPELCEGKPYNQKSDI

Variants of: B1
Test: protein stability index of a GFP-peptide fusion (GPS, HEK-293T) (PSI 1-6); higher = more stable
Conditions: c terminus: a fixed tail appended
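Further: lentivirally expressed fusions sorted by FACS into six bins by GFP to DsRed ratio, PSI derived from sequencing read proportions per bin multiplied by bin number.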

Variant | protein stability index
V1A | 3.78
V1C | 3.31
V1D | 4.53
V1E | 4.48
V1F | 1.22
V1G | 4.28
V1H | 2.77
V1I | 2.32
V1K | 4.06
V1L | 3.1
V1M | 3.42
V1N | 4.48
V1P | 4.25
V1Q | 4.14
V1R | 3.74
V1S | 4.03
V1T | 3.76
V1W | 2.62
V1Y | 2.88
V2A | 3.49
V2C | 2.89
V2D | 3.9
V2E | 4.59
V2F | 3.12

Variant | protein stability index
V2G | 3.66
V2H | 3.68
V2I | 3.56
V2K | 3.93
V2L | 3.58
V2M | 3.23
V2N | 3.63
V2P | 3.44
V2Q | 3.77
V2R | 3.4
V2S | 3.75
V2T | 3.73
V2W | 2.8
V2Y | 3.23
G3A | 2.31
G3C | 2.23
G3D | 3.26
G3E | 2.7
G3F | 1.48
G3H | 2.74
G3I | 1.8
G3K | 2.9
G3L | 1.63
G3M | 1.84

Variant | protein stability index
G3N | 3.52
G3P | 3.38
G3Q | 2.5
G3R | 2.74
G3S | 3.01
G3T | 3.01
G3V | 2.07
G3W | 2.05
G3Y | 1.65
T4A | 2.95
T4C | 2.85
T4D | 3.72
T4E | 4.08
T4F | 2.21
T4G | 3.34
T4H | 3.02
T4I | 1.75
T4K | 3.45
T4L | 2.39
T4M | 2.78
T4N | 3.87
T4P | 3.46
T4Q | 4.19
T4R | 2.79

Variant | protein stability index
T4S | 3.68
T4V | 1.99
T4W | 2.13
T4Y | 2.25
P5A | 3.05
P5C | 2.56
P5D | 2.98
P5E | 3.53
P5F | 1.16
P5G | 3.27
P5H | 3.14
P5I | 1.64
P5K | 3.18
P5L | 2.28
P5M | 2.75
P5N | 3.21
P5Q | 3.62
P5R | 2.76
P5S | 3.36
P5T | 3.32
P5V | 1.89
P5W | 1.66
P5Y | 2.06
C6A | 2.81

Variant | protein stability index
C6D | 4.4
C6E | 4.34
C6F | 2.14
C6G | 3.39
C6H | 2.47
C6I | 3.07
C6K | 3.48
C6L | 3.25
C6M | 3.56
C6N | 2.38
C6P | 3.38
C6Q | 4.11
C6R | 3.88
C6S | 3.08
C6T | 3.26
C6V | 2.71
C6W | 2.5
C6Y | 2.02
Y7A | 3.94
Y7C | 4.16
Y7D | 4.69
Y7E | 4.5
Y7F | 3.05
Y7G | 3.98

Variant | protein stability index
Y7H | 3.87
Y7I | 4.08
Y7K | 3.92
Y7L | 3.83
Y7M | 3.97
Y7N | 4.52
Y7P | 4.16
Y7Q | 4.35
Y7R | 3.96
Y7S | 3.69
Y7T | 4.36
Y7V | 4.04
Y7W | 2.82
I8A | 4.4
I8C | 3.05
I8D | 4.18
I8E | 4.5
I8F | 2.9
I8G | 4.42
I8H | 3.2
I8K | 4.14
I8L | 3.48
I8M | 2.89
I8N | 4.4

Variant | protein stability index
I8P | 4.29
I8Q | 4.42
I8R | 3.7
I8S | 3.98
I8T | 3.77
I8V | 4.03
I8W | 2.27
I8Y | 2.31
S9A | 2.45
S9C | 1.94
S9D | 3.44
S9E | 3.16
S9F | 1.96
S9G | 2.99
S9H | 2.04
S9I | 2.32
S9K | 3.61
S9L | 1.68
S9M | 2.4
S9N | 2.31
S9P | 3.58
S9Q | 2.62
S9R | 2.48
S9T | 2.61

Variant | protein stability index
S9V | 2.31
S9W | 2.25
S9Y | 1.55
P10A | 2.96
P10C | 2.22
P10D | 3.23
P10E | 3.6
P10F | 2.03
P10G | 3.56
P10H | 3.66
P10I | 1.49
P10K | 3.56
P10L | 2.01
P10M | 2.24
P10N | 3.44
P10Q | 3.49
P10R | 2.98
P10S | 3.39
P10T | 2.74
P10V | 1.75
P10W | 1.9
P10Y | 1.91
E11A | 2.68
E11C | 1.68

Variant | protein stability index
E11D | 3.16
E11F | 1.5
E11G | 2.54
E11H | 2.03
E11I | 2.52
E11K | 2.74
E11L | 1.8
E11M | 2.32
E11N | 2.66
E11P | 1.76
E11Q | 2.31
E11R | 2.49
E11S | 2.7
E11T | 2.48
E11V | 1.59
E11W | 1.08
E11Y | 2.05
L12A | 3.1
L12C | 3.29
L12D | 3.4
L12E | 4.11
L12F | 2.15
L12G | 4.29
L12H | 3.59

Variant | protein stability index
L12I | 2.93
L12K | 3.69
L12M | 2.76
L12N | 3.62
L12P | 3.6
L12Q | 2.71
L12R | 3.35
L12S | 3.15
L12T | 3.15
L12V | 2.83
L12W | 1.83
L12Y | 2.27
C13A | 2.71
C13D | 3.34
C13E | 2.98
C13F | 2.19
C13G | 3.08
C13H | 2.92
C13I | 2.48
C13K | 3.38
C13L | 2.88
C13M | 2.79
C13N | 3.23
C13P | 2.3

Variant | protein stability index
C13Q | 2.79
C13R | 3.27
C13S | 2.9
C13T | 2.94
C13V | 2.95
C13W | 1.92
C13Y | 2.79
E14A | 2.49
E14C | 2.73
E14D | 2.45
E14F | 1.82
E14G | 2.52
E14H | 2.23
E14I | 2.2
E14K | 2.6
E14L | 2.67
E14M | 2.28
E14N | 2.52
E14P | 2.79
E14Q | 2.37
E14R | 2.51
E14S | 2.38
E14T | 2.73
E14V | 2.23

Variant | protein stability index
E14W | 2.5
E14Y | 2.25
G15A | 2.85
G15C | 2.47
G15D | 2.93
G15E | 2.8
G15F | 2.15
G15H | 2.84
G15I | 2.41
G15K | 3.45
G15L | 2.19
G15M | 2.39
G15N | 2.68
G15P | 2.56
G15Q | 2.97
G15R | 2.85
G15S | 2.37
G15T | 2.87
G15V | 3.14
G15W | 1.64
G15Y | 2.34
K16A | 2.16
K16C | 2.43
K16D | 3.14

Variant | protein stability index
K16E | 3.05
K16F | 2.11
K16G | 2.55
K16H | 2.15
K16I | 2.02
K16L | 2.07
K16M | 2.81
K16N | 3.13
K16P | 2.15
K16Q | 2.79
K16R | 2.62
K16S | 2.17
K16T | 2.54
K16V | 2.78
K16W | 1.55
K16Y | 1.96
P17A | 2.91
P17C | 2.22
P17D | 3.05
P17E | 3.09
P17F | 1.99
P17G | 2.76
P17H | 2.9
P17I | 2.39

Variant | protein stability index
P17K | 2.99
P17L | 2.23
P17M | 2.35
P17N | 3.12
P17Q | 2.77
P17R | 3.38
P17S | 3.02
P17T | 3
P17V | 2.55
P17W | 1.65
P17Y | 2.27
Y18A | 3.6
Y18C | 3.05
Y18D | 3.53
Y18E | 3.72
Y18F | 2.67
Y18G | 3.45
Y18H | 2.7
Y18I | 2.79
Y18K | 3.67
Y18L | 2.8
Y18M | 3.15

Reference: the supplement of paper PMC10567573
